Source: paper doi:10.1101/2020.08.31.276014 (bioRxiv, 2020)

Molecular target: the molecule itself
Assay: SDS-PAGE of unboiled samples

B1: unencapsulated (naked) DypB (Rv0799c) purified from E. coli (enzyme)
chain: MAVPAVSPQPILAPLTPAAIFLVATIGADGEATVHDALSKISGLVRAIGFRDPTKHLSVVVSIGSDAWDRLFAGPRPTELHPFVELTGPRHTAPATPGDLLFHIRAETMDVCFELAGRILKSMGDAVTVVDEVHGFRFFDNRDLLGFVDGTENPSGPIAIKATTIGDEDRNFAGSCYVHVQKYVHDMASWESLSVTEQERVIGRTKLDDIELDDNAKPANSHVALNVITDDDGTERKIVRHNMPFGEVGKGEYGTYFIGYSRTPTVTEQMLRNMFLGDPAGNTDRVLDFSTAVTGGLFFSPTIDFLDHPPPLPQAATPTLAAGSLSIGSLKGSPR
- stoichiometry N: 4
